Experimental data from patent publication US20130065832A1 (WASHINGTON UNIVERSITY, published 2013).

Tests used:
[1] = target: T1, MOR1D (endogenous, mouse spinal cord) (mouse, UniProt P42866-9 1-393); test: co-IP with anti-MOR1D antibody from spinal cord membrane preparation, immunoblot for GRPR
T1 construct: Untagged native receptor in spinal cord membrane preparations and sections; MOR1D is a splice isoform of it; also called spinal MOR1D

[2] = target: T2, MOR1 (endogenous, mouse spinal cord) (mouse, UniProt P42866 1-398); test: co-IP with anti-MOR1 antibody from spinal cord membrane preparation, immunoblot for GRPR
T2 construct: Untagged native receptor; precipitated with a rabbit anti-MOR1 antibody (Neuromics)
T2 sequence (P42866 whole entry): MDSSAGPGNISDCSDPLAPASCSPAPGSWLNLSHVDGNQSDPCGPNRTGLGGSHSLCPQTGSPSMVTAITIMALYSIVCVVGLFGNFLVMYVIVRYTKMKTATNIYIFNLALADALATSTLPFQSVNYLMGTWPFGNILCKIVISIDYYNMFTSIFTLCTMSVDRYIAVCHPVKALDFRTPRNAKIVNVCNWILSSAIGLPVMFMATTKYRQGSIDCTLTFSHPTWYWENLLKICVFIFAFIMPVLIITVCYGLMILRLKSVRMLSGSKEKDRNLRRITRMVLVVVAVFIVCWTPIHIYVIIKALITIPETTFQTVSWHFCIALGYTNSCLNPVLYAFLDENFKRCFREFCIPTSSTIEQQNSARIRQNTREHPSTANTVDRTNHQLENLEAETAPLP

T1 sequence (P42866 1-386, tags or fused parts left off): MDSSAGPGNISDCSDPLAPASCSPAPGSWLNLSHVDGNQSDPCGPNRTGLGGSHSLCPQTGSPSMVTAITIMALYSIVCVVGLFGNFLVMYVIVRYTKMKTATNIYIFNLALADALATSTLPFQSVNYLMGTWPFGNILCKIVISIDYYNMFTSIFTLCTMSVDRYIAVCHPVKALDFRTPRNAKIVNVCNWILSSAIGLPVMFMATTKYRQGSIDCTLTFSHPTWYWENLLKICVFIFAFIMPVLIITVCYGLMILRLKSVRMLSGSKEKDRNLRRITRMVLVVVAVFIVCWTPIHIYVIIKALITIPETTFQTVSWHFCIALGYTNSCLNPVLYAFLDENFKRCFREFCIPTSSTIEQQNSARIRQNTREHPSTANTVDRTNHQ

binding result [1]: binds | binding result [2]: no binding
B1: GRPR (endogenous, mouse spinal cord) (receptor, UniProt P21729 1-384, looked up)
chain: MAPNNCSHLNLDVDPFLSCNDTFNQSLSPPKMDNWFHPGFIYVIPAVYGLIIVIGLIGNITLIKIFCTVKSMRNVPNLFISSLALGDLLLLVTCAPVDASKYLADRWLFGRIGCKLIPFIQLTSVGVSVFTLTALSADRYKAIVRPMDIQASHALMKICLKAALIWIVSMLLAIPEAVFSDLHPFHVKDTNQTFISCAPYPHSNELHPKIHSMASFLVFYVIPLAIISVYYYFIARNLIQSAYNLPVEGNIHVKKQIESRKRLAKTVLVFVGLFAFCWLPNHVIYLYRSYHYSEVDTSMLHFVTSICARLLAFTNSCVNPFALYLLSKSFRKQFNTQLLCCQPGLMNRSHSTGRSTTCMTSFKSTNPSATFSLINRNICHEGYV
notes: Untagged native receptor in spinal cord membrane preparations; also called gastrin-releasing peptide receptor
